Here are results for one molecule from patent US20240002547A1, “T[…]-TARGETING CONSTRUCTS AND USES THEREOF” (AEBI LTD., priority 2016, published 2024).

The assay addresses human EGFR on A431 and MCF-7 cells (human), P00533. In words: cell-based or functional assay.

CHPGDKQEDPNCLQADK (modifications not checked) [E13.3] yielded an IC50 of inhibition of EGFR autophosphorylation in A431 cells of 2000 nM and a Normalized Percent of EGFR autophosphorylation inhibition of 99.4%.
